# Measurements published in patent US20260001928A1 (CORTERIA PHARMACEUTICALS, priority 2022, published 2026).
# *1 amine or outer side, *2 acyl side, *3 side chain or, on linkers, in order; H or OH if unused. Where no end group is shown, it is not given here. Side-chain parts run from the residue outwards. [ ]: non-standard residue; d: D form. The star is where a group is joined. C20 diacid = O=C(O)CCCCCCCCCCCCCCCCCCC(=O)*; γGlu = O=C(O)[C@H](CCC(=O)[*:2])N[*:1]; NMeI = CC[C@H](C)[C@H](NC)C(=O)O; AEEA = NCCOCCOCC(=O)O; Aib = CC(C)(N)C(=O)O
# Molecular target: human corticotropin-releasing factor 2a (CRF2a receptor) (human), Q13324
# Test: cell-based or functional assay
# Chain of human corticotropin-releasing factor 2a (CRF2a receptor) (human), Q13324 (Q13324 20-411): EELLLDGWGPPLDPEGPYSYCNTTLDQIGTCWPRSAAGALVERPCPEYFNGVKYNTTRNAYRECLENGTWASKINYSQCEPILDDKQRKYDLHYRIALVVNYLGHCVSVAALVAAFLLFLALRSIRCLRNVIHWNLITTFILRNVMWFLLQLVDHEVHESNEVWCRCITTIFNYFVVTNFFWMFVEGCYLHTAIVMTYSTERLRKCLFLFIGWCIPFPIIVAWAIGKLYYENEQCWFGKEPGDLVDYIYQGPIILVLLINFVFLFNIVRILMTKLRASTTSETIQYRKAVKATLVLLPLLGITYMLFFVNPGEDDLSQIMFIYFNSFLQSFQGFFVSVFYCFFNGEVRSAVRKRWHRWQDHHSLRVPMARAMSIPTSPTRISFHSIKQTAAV
row,EC50 [nM] (cAMP),Binder
1,0.28,Ac-IVLSLD[dV]PIKLK([γGlu-γGlu-C20 diacid])KILLEQEKQKAQREQAETN[Aib]QILAQV-NH2 (SMILES CC[C@H](C)[C@H](NC(C)=O)C(=O)N[C@H](C(=O)N[C@@H](CC(C)C)C(=O)N[C@@H](CO)C(=O)N[C@@H](CC(C)C)C(=O)N[C@@H](CC(=O)O)C(=O)N[C@@H](C(=O)N1CCC[C@H]1C(=O)N[C@H](C(=O)N[C@@H](CCCCN)C(=O)N[C@@H](CC(C)C)C(=O)N[C@@H](CCCCNC(=O)CC[C@H](NC(=O)CC[C@H](NC(=O)CCCCCCCCCCCCCCCCCCC(=O)O)C(=O)O)C(=O)O)C(=O)N[C@@H](CCCCN)C(=O)N[C@H](C(=O)N[C@@H](CC(C)C)C(=O)N[C@@H](CC(C)C)C(=O)N[C@@H](CCC(=O)O)C(=O)N[C@@H](CCC(N)=O)C(=O)N[C@@H](CCC(=O)O)C(=O)N[C@@H](CCCCN)C(=O)N[C@@H](CCC(N)=O)C(=O)N[C@@H](CCCCN)C(=O)N[C@@H](C)C(=O)N[C@@H](CCC(N)=O)C(=O)N[C@@H](CCCNC(=N)N)C(=O)N[C@@H](CCC(=O)O)C(=O)N[C@@H](CCC(N)=O)C(=O)N[C@@H](C)C(=O)N[C@@H](CCC(=O)O)C(=O)N[C@H](C(=O)N[C@@H](CC(N)=O)C(=O)NC(C)(C)C(=O)N[C@@H](CCC(N)=O)C(=O)N[C@H](C(=O)N[C@@H](CC(C)C)C(=O)N[C@@H](C)C(=O)N[C@@H](CCC(N)=O)C(=O)N[C@H](C(N)=O)C(C)C)[C@@H](C)CC)[C@@H](C)O)[C@@H](C)CC)[C@@H](C)CC)C(C)C)C(C)C) [SEQ ID NO 244]
2,0.22,[NMeI]VLSLD[dV]PIKLK([γGlu-γGlu-C20 diacid])KILLEQEKQKEQREQAETN[Aib]QILAQV-NH2 (N-terminus assumed; SMILES CC[C@H](C)[C@H](NC)C(=O)N[C@H](C(=O)N[C@@H](CC(C)C)C(=O)N[C@@H](CO)C(=O)N[C@@H](CC(C)C)C(=O)N[C@@H](CC(=O)O)C(=O)N[C@@H](C(=O)N1CCC[C@H]1C(=O)N[C@H](C(=O)N[C@@H](CCCCN)C(=O)N[C@@H](CC(C)C)C(=O)N[C@@H](CCCCNC(=O)CC[C@H](NC(=O)CC[C@H](NC(=O)CCCCCCCCCCCCCCCCCCC(=O)O)C(=O)O)C(=O)O)C(=O)N[C@@H](CCCCN)C(=O)N[C@H](C(=O)N[C@@H](CC(C)C)C(=O)N[C@@H](CC(C)C)C(=O)N[C@@H](CCC(=O)O)C(=O)N[C@@H](CCC(N)=O)C(=O)N[C@@H](CCC(=O)O)C(=O)N[C@@H](CCCCN)C(=O)N[C@@H](CCC(N)=O)C(=O)N[C@@H](CCCCN)C(=O)N[C@@H](CCC(=O)O)C(=O)N[C@@H](CCC(N)=O)C(=O)N[C@@H](CCCNC(=N)N)C(=O)N[C@@H](CCC(=O)O)C(=O)N[C@@H](CCC(N)=O)C(=O)N[C@@H](C)C(=O)N[C@@H](CCC(=O)O)C(=O)N[C@H](C(=O)N[C@@H](CC(N)=O)C(=O)NC(C)(C)C(=O)N[C@@H](CCC(N)=O)C(=O)N[C@H](C(=O)N[C@@H](CC(C)C)C(=O)N[C@@H](C)C(=O)N[C@@H](CCC(N)=O)C(=O)N[C@H](C(N)=O)C(C)C)[C@@H](C)CC)[C@@H](C)O)[C@@H](C)CC)[C@@H](C)CC)C(C)C)C(C)C) [SEQ ID NO 242]
3,0.13,Ac-IVLSLD[dV]PIKLK([γGlu-γGlu-C20 diacid])KILLEQEKQKKQREQAETN[Aib]QILAQV-NH2 (SMILES CC[C@H](C)[C@H](NC(C)=O)C(=O)N[C@H](C(=O)N[C@@H](CC(C)C)C(=O)N[C@@H](CO)C(=O)N[C@@H](CC(C)C)C(=O)N[C@@H](CC(=O)O)C(=O)N[C@@H](C(=O)N1CCC[C@H]1C(=O)N[C@H](C(=O)N[C@@H](CCCCN)C(=O)N[C@@H](CC(C)C)C(=O)N[C@@H](CCCCNC(=O)CC[C@H](NC(=O)CC[C@H](NC(=O)CCCCCCCCCCCCCCCCCCC(=O)O)C(=O)O)C(=O)O)C(=O)N[C@@H](CCCCN)C(=O)N[C@H](C(=O)N[C@@H](CC(C)C)C(=O)N[C@@H](CC(C)C)C(=O)N[C@@H](CCC(=O)O)C(=O)N[C@@H](CCC(N)=O)C(=O)N[C@@H](CCC(=O)O)C(=O)N[C@@H](CCCCN)C(=O)N[C@@H](CCC(N)=O)C(=O)N[C@@H](CCCCN)C(=O)N[C@@H](CCCCN)C(=O)N[C@@H](CCC(N)=O)C(=O)N[C@@H](CCCNC(=N)N)C(=O)N[C@@H](CCC(=O)O)C(=O)N[C@@H](CCC(N)=O)C(=O)N[C@@H](C)C(=O)N[C@@H](CCC(=O)O)C(=O)N[C@H](C(=O)N[C@@H](CC(N)=O)C(=O)NC(C)(C)C(=O)N[C@@H](CCC(N)=O)C(=O)N[C@H](C(=O)N[C@@H](CC(C)C)C(=O)N[C@@H](C)C(=O)N[C@@H](CCC(N)=O)C(=O)N[C@H](C(N)=O)C(C)C)[C@@H](C)CC)[C@@H](C)O)[C@@H](C)CC)[C@@H](C)CC)C(C)C)C(C)C) [SEQ ID NO 243]

# Continued, binder first:
row,Binder,EC50 [nM] (cAMP)
1,[NMeI]VLSLD[dV]PIKLK([AEEA-AEEA-γGlu-C20 diacid])KILLEQEKQK[Aib]QREQAETN[Aib]QILAQV-NH2 (N-terminus assumed; SMILES CC[C@H](C)[C@H](NC)C(=O)N[C@H](C(=O)N[C@@H](CC(C)C)C(=O)N[C@@H](CO)C(=O)N[C@@H](CC(C)C)C(=O)N[C@@H](CC(=O)O)C(=O)N[C@@H](C(=O)N1CCC[C@H]1C(=O)N[C@H](C(=O)N[C@@H](CCCCN)C(=O)N[C@@H](CC(C)C)C(=O)N[C@@H](CCCCNC(=O)COCCOCCNC(=O)COCCOCCNC(=O)CC[C@H](NC(=O)CCCCCCCCCCCCCCCCCCC(=O)O)C(=O)O)C(=O)N[C@@H](CCCCN)C(=O)N[C@H](C(=O)N[C@@H](CC(C)C)C(=O)N[C@@H](CC(C)C)C(=O)N[C@@H](CCC(=O)O)C(=O)N[C@@H](CCC(N)=O)C(=O)N[C@@H](CCC(=O)O)C(=O)N[C@@H](CCCCN)C(=O)N[C@@H](CCC(N)=O)C(=O)N[C@@H](CCCCN)C(=O)NC(C)(C)C(=O)N[C@@H](CCC(N)=O)C(=O)N[C@@H](CCCNC(=N)N)C(=O)N[C@@H](CCC(=O)O)C(=O)N[C@@H](CCC(N)=O)C(=O)N[C@@H](C)C(=O)N[C@@H](CCC(=O)O)C(=O)N[C@H](C(=O)N[C@@H](CC(N)=O)C(=O)NC(C)(C)C(=O)N[C@@H](CCC(N)=O)C(=O)N[C@H](C(=O)N[C@@H](CC(C)C)C(=O)N[C@@H](C)C(=O)N[C@@H](CCC(N)=O)C(=O)N[C@H](C(N)=O)C(C)C)[C@@H](C)CC)[C@@H](C)O)[C@@H](C)CC)[C@@H](C)CC)C(C)C)C(C)C) [SEQ ID NO 239],0.11
2,Ac-IVLSLD[dV]PIKLK([AEEA-AEEA-γGlu-C20 diacid])KILLEQEKQKAQREQAETN[Aib]QILAQV-NH2 (SMILES CC[C@H](C)[C@H](NC(C)=O)C(=O)N[C@H](C(=O)N[C@@H](CC(C)C)C(=O)N[C@@H](CO)C(=O)N[C@@H](CC(C)C)C(=O)N[C@@H](CC(=O)O)C(=O)N[C@@H](C(=O)N1CCC[C@H]1C(=O)N[C@H](C(=O)N[C@@H](CCCCN)C(=O)N[C@@H](CC(C)C)C(=O)N[C@@H](CCCCNC(=O)COCCOCCNC(=O)COCCOCCNC(=O)CC[C@H](NC(=O)CCCCCCCCCCCCCCCCCCC(=O)O)C(=O)O)C(=O)N[C@@H](CCCCN)C(=O)N[C@H](C(=O)N[C@@H](CC(C)C)C(=O)N[C@@H](CC(C)C)C(=O)N[C@@H](CCC(=O)O)C(=O)N[C@@H](CCC(N)=O)C(=O)N[C@@H](CCC(=O)O)C(=O)N[C@@H](CCCCN)C(=O)N[C@@H](CCC(N)=O)C(=O)N[C@@H](CCCCN)C(=O)N[C@@H](C)C(=O)N[C@@H](CCC(N)=O)C(=O)N[C@@H](CCCNC(=N)N)C(=O)N[C@@H](CCC(=O)O)C(=O)N[C@@H](CCC(N)=O)C(=O)N[C@@H](C)C(=O)N[C@@H](CCC(=O)O)C(=O)N[C@H](C(=O)N[C@@H](CC(N)=O)C(=O)NC(C)(C)C(=O)N[C@@H](CCC(N)=O)C(=O)N[C@H](C(=O)N[C@@H](CC(C)C)C(=O)N[C@@H](C)C(=O)N[C@@H](CCC(N)=O)C(=O)N[C@H](C(N)=O)C(C)C)[C@@H](C)CC)[C@@H](C)O)[C@@H](C)CC)[C@@H](C)CC)C(C)C)C(C)C) [SEQ ID NO 240],0.22
3,Ac-IVLSLD[dV]PIKLK([γGlu-γGlu-C20 diacid])KILLEQEKQKEQREQAETN[Aib]QILAQV-NH2 (SMILES CC[C@H](C)[C@H](NC(C)=O)C(=O)N[C@H](C(=O)N[C@@H](CC(C)C)C(=O)N[C@@H](CO)C(=O)N[C@@H](CC(C)C)C(=O)N[C@@H](CC(=O)O)C(=O)N[C@@H](C(=O)N1CCC[C@H]1C(=O)N[C@H](C(=O)N[C@@H](CCCCN)C(=O)N[C@@H](CC(C)C)C(=O)N[C@@H](CCCCNC(=O)CC[C@H](NC(=O)CC[C@H](NC(=O)CCCCCCCCCCCCCCCCCCC(=O)O)C(=O)O)C(=O)O)C(=O)N[C@@H](CCCCN)C(=O)N[C@H](C(=O)N[C@@H](CC(C)C)C(=O)N[C@@H](CC(C)C)C(=O)N[C@@H](CCC(=O)O)C(=O)N[C@@H](CCC(N)=O)C(=O)N[C@@H](CCC(=O)O)C(=O)N[C@@H](CCCCN)C(=O)N[C@@H](CCC(N)=O)C(=O)N[C@@H](CCCCN)C(=O)N[C@@H](CCC(=O)O)C(=O)N[C@@H](CCC(N)=O)C(=O)N[C@@H](CCCNC(=N)N)C(=O)N[C@@H](CCC(=O)O)C(=O)N[C@@H](CCC(N)=O)C(=O)N[C@@H](C)C(=O)N[C@@H](CCC(=O)O)C(=O)N[C@H](C(=O)N[C@@H](CC(N)=O)C(=O)NC(C)(C)C(=O)N[C@@H](CCC(N)=O)C(=O)N[C@H](C(=O)N[C@@H](CC(C)C)C(=O)N[C@@H](C)C(=O)N[C@@H](CCC(N)=O)C(=O)N[C@H](C(N)=O)C(C)C)[C@@H](C)CC)[C@@H](C)O)[C@@H](C)CC)[C@@H](C)CC)C(C)C)C(C)C) [SEQ ID NO 241],0.56
